The target of the data set is ETV5 DNA-binding domain (pET-41a) (UniProt Q9CXC9 368-448). In words: EMSA. On the technique in general: A gel shift assay detects complexes by their altered migration in electrophoresis.
Sequence of ETV5 DNA-binding domain (pET-41a) (Q9CXC9 368-448): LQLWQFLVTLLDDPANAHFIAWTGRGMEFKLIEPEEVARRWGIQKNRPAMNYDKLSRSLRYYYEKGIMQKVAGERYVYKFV

B1: EBS3 probe (Ccl9) (dsDNA)
DNA 1: CTCTAGTACCAGGGAATTTAACACCCTCTTC
DNA 2: GAAGAGGGTGTTAAATTCCCTGGTACTAGAG
With B1, the binding result was “binds”.

Values taken from article PMC3109872.
